# Source: IntAct's records for PubMed 8137824
# B1: Mating-type protein ALPHA2 (Saccharomyces cerevisiae), P0CY08 (parent)
# chain: MNKIPIKDLLNPQITDEFKSSILDINKKLFSICCNLPKLPESVTTEEEVELRDILGFLSRANKNRKISDEEKKLLQTTSQLTTTITVLLKEMRSIENDRSNYQLTQKNKSADGLVFNVVTQDMINKSTKPYRGHRFTKENVRILESWFAKNIENPYLDTKGLENLMKNTSLSRIQIKNWVSNRRRKEKTITIAPELADLLSGEPLAKKKE
# partner: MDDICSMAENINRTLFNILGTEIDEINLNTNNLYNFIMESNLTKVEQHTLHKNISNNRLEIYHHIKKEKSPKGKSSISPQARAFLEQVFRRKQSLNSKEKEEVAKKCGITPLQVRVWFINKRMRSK
# Variants of: B1
# Conditions: with mata1_yeasx MATA1, P0CY10
row,effect of a mutation on the interaction,Variant
1,disrupting interaction strength,MNKIPIKDLLNPQITDEFKSSILDINKKLFSICCNLPKLPESVTTEEEVELRDILGFLSRANKNRKASDEEKKALQTTSQATTTITVALKEMRSIENDRSNYQLTQKNKSADGLVFNVVTQDMINKSTKPYRGHRFTKENVRILESWFAKNIENPYLDTKGLENLMKNTSLSRIQIKNWVSNRRRKEKTITIAPELADLLSGEPLAKKKE [I67A;L74A;L81A;L88A]
